From IntAct's records for PubMed 16799563

B1: Mediator of RNA polymerase II transcription subunit 15 (Homo sapiens), Q96RN5 (parent)
chain: MDVSGQETDWRSTAFRQKLVSQIEDAMRKAGVAHSKSSKDMESHVFLKAKTRDEYLSLVARLIIHFRDIHNKKSQASVSDPMNALQSLTGGPAAGAAGIGMPPRGPGQSLGGMGSLGAMGQPMSLSGQPPPGTSGMAPHSMAVVSTATPQTQLQLQQVALQQQQQQQQFQQQQQAALQQQQQQQQQQQFQAQQSAMQQQFQAVVQQQQQLQQQQQQQQHLIKLHHQNQQQIQQQQQQLQRIAQLQLQQQQQQQQQQQQQQQQALQAQPPIQQPPMQQPQPPPSQALPQQLQQMHHTQHHQPPPQPQQPPVAQNQPSQLPPQSQTQPLVSQAQALPGQMLYTQPPLKFVRAPMVVQQPPVQPQVQQQQTAVQTAQAAQMVAPGVQMITEALAQGGMHIRARFPPTTAVSAIPSSSIPLGRQPMAQVSQSSLPMLSSPSPGQQVQTPQSMPPPPQPSPQPGQPSSQPNSNVSSGPAPSPSSFLPSPSPQPSQSPVTARTPQNFSVPSPGPLNTPVNPSSVMSPAGSSQAEEQQYLDKLKQLSKYIEPLRRMINKIDKNEDRKKDLSKMKSLLDILTDPSKRCPLKTLQKCEIALEKLKNDMAVPTPPPPPVPPTKQQYLCQPLLDAVLANIRSPVFNHSLYRTFVPAMTAIHGPPITAPVVCTRKRRLEDDERQSIPSVLQGEVARLDPKFLVNLDPSHCSNNGTVHLICKLDDKDLPSVPPLELSVPADYPAQSPLWIDRQWQYDANPFLQSVHRCMTSRLLQLPDKHSVTALLNTWAQSVHQACLSAA
partner: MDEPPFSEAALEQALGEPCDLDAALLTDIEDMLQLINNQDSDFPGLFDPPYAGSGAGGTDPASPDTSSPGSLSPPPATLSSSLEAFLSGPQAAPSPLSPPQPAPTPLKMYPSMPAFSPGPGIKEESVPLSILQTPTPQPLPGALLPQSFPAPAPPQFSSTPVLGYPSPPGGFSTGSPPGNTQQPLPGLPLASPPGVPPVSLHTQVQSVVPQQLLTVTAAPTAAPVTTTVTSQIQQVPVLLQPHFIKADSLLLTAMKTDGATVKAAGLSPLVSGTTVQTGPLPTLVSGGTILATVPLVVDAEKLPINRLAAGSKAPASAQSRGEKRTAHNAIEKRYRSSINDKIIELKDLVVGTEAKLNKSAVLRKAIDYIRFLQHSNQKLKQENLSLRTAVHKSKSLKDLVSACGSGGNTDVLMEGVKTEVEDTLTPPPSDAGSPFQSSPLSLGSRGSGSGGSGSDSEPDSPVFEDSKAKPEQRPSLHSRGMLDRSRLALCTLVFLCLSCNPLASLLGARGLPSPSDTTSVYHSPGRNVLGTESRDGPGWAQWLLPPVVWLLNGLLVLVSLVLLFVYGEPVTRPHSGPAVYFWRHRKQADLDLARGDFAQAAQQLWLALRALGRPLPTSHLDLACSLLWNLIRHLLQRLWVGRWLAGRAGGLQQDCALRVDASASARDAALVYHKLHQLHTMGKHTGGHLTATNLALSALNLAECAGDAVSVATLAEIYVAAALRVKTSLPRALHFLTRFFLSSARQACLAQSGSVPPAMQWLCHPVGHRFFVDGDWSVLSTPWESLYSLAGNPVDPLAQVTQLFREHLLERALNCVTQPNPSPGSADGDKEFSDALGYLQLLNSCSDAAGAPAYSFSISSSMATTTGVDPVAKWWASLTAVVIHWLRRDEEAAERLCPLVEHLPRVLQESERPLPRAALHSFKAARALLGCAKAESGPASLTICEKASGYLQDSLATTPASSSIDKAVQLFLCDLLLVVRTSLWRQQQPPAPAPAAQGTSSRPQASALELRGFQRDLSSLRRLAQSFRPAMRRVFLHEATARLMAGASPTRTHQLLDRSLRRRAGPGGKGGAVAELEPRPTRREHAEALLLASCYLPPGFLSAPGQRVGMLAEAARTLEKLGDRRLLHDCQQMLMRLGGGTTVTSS

Variants of: B1
Details: with SREBF1, P36956-1

Effect of a mutation on the interaction, disrupting interaction strength:
L58D
A60D
E42A
